Laboratory results from patent EP3196312B1, “EFFICIENT CONVERSION OF METHYLGLYOXAL INTO HYDROXYACETONE USING NOVEL ENZYMES AND APPLI CATIONS THEREOF” (Metabolic Explorer, priority 2016, dated 2017).

Key:
Experiment in all cases: Methylglyoxal reductase kinetic parameters of purified enzyme (NAD(P)H consumption at 340 nm)
[1] = substrate: CC(=O)C=O; format: biochemical, Escherichia coli; details: other: substrate methylglyoxal 0.1-40 mM, pH 7.5
Method: (§1) Except for the strain 18, the proteins were purified from the crude cell-extract by affinity on a Profinity column (BIORAD, Bio-Scale Mini Profinity exact cartridge 5 ml) according to the protocol recommended by the manufacturer. The crude extract was loaded on a 5 ml Profinity exact cartridge equilibrated with 100 mM potassium phosphate pH 7.6. The column was washed with 10 column volumes of the same buffer and incubated 30min with 100 mM potassium phosphate pH 7.6, 100 mM fluoride at room temperature. The protein was eluted from the column with 2 column volumes of 100 mM potassium phosphate pH 7.6. The tag remained tightly bound to the resin and the purified protein was released. The fractions containing the protein were pooled, concentrated and loaded on a gel filtration column (Superdex 200 10/300 GL column, GE Healthcare) equilibrated with different storage buffers (Table 3). Protein concentration was measured using the Bradford protein assay.
(§2) Methylglyoxal reductase activity (MGR) was determined by measuring the consumption of NAD(P)H at 340 nm on a spectrophotometer at 30°C (λ340 = 6290 M^-1 cm^-1). The reaction mixture (1mL) containing assay buffer and purified enzyme was incubated for 5 min at 30°C. Then, 0.1-40 mM methylglyoxal was added to start the reaction. One unit of enzyme activity was defined as the amount of enzyme catalyzing the decrease of 1µmol of NAD(P)H per min. Kinetic parameters were determined with Sigmaplot.

[2] = substrate: CC(=O)C=O; format: biochemical, Dickeya zeae; details: other: substrate methylglyoxal 0.1-40 mM, cofactor NADPH, 20mM Hepes (pH7.5), 30°C, pH 7.5
Method: as §1
as §2, with “One unit of enzyme activity was defined as the amount of enzyme catalyzing the decrease of 1µmol of NAD(P)H per min.” left out

[3] = substrate: CC(=O)C=O; format: biochemical, Klebsiella pneumoniae; details: other: substrate methylglyoxal 0.1-40 mM, cofactor NADH, 50 mM Imidazole (pH7), 30°C, pH 7.0
Method: as §1
as §2, with “One unit of enzyme activity was defined as the amount of enzyme catalyzing the decrease of 1µmol of NAD(P)H per min.” left out

[4] = substrate: CC(=O)C=O; format: biochemical, Bacillus subtilis; details: other: substrate methylglyoxal 0.1-40 mM, cofactor NADPH, 20mM Hepes (pH7.5) 0.1mM ZnSO4, 30°C, pH 7.5
Method: as §1
as §2, with “One unit of enzyme activity was defined as the amount of enzyme catalyzing the decrease of 1µmol of NAD(P)H per min.” left out

[5] = substrate: CC(=O)C=O; format: biochemical, Hypocrea jecorina; details: other: substrate methylglyoxal 0.1-40 mM, cofactor NADPH, 10mM sodium phosphate (pH 7), 30°C
Method: as §1
as §2, with “One unit of enzyme activity was defined as the amount of enzyme catalyzing the decrease of 1µmol of NAD(P)H per min.” left out

[6] = substrate: CC(=O)C=O; format: biochemical, Gluconobacter oxydans; details: other: substrate methylglyoxal 0.1-40 mM, cofactor NADPH, 20mM Hepes (pH7.5), 30°C, pH 7.5
Method: as §1
as §2, with “One unit of enzyme activity was defined as the amount of enzyme catalyzing the decrease of 1µmol of NAD(P)H per min.” left out

[7] = cofactor NADH, 20mM Hepes (pH7.5) 0.1mM FeSO4, 30°C
[8] = cofactor NADPH, 20mM Hepes (pH7.5), 30°C

B1: Escherichia coli YqhD (alcohol dehydrogenase, Uniprot Q46856), wild type, SEQ ID NO: 7 (Escherichia coli K-12) (protein)
chain: MNNFNLHTPTRILFGKGAIAGLREQIPHDARVLITYGGGSVKKTGVLDQVLDALKGMDVLEFGGIEPNPAYETLMNAVKLVREQKVTFLLAVGGGSVLDGTKFIAAAANYPENIDPWHILQTGGKEIKSAIPMGCVLTLPATGSESNAGAVISRKTTGDKQAFHSAHVQPVFAVLDPVYTYTLPPRQVANGVVDAFVHTVEQYVTKPVDAKIQDRFAEGILLTLIEDGPKALKEPENYDVRANVMWAATQALNGLIGAGVPQDWATHMLGHELTAMHGLDHAQTLAIVLPALWNEKRDTKRAKLLQYAERVWNITEGSDDERIDAAIAATRNFFEQLGVPTHLSDYGLDGSSIPALLKKLEEHGMTQLGENHDITLDVSRRIYEAAR
Which Km ([1]; cofactor NADPH, 20mM Hepes (pH7.5) 0.1mM ZnSO4, 30°C) does the source give for B1 here?
The Km was 2090 µM.

B2: Dickeya zeae Adh3.2 (Group III alcohol dehydrogenase, Uniprot R4Z7U3), SEQ ID NO: 103 (Dickeya zeae) (protein)
chain: MQNFTLHTPTKILFGEGQIAALADQIPADARILITYGGGSIKKNGVFDQVINALKGRNVVEFSGIEPNPTYETLMKAVEIVRKENIDFLLAVGGGSVADGTKFIAAAVNYKAAEDPWHILQTWGAHVESAIPLGVVLTLPATGSESNSGAVITRKSTGDKQAFMNPLVCPRFAVLDPVVTYTLPERQIANGVVDAFVHTVEQYLTYPVDAKVQDRFAEGLLLTLIEEGPRALKEQHNYNVRANVMWSATMALNGLIGAGVPQDWSTHMLGHEITAMHGLDHAQTLAIVLPAMLNERRVQKREKLLQYAERVWNLRDGSDDQRIDGAIAATRAFFEQMGVPTRLSDYQLDGSSIPALVAKLEEHGMTALGENKDITLDISKRVYEAAR
For B2, which Km [2] is on record?
Its Km is 6700 µM.

What about the kcat/Km [2] of the same protein?
Its kcat/Km is 170 M⁻¹ s⁻¹.

B3: Escherichia coli YiaY (Probable alcohol dehydrogenase, Uniprot P37686), SEQ ID NO: 111 (Escherichia coli K-12) (protein)
chain: MAASTFFIPSVNVIGADSLTDAMNMMADYGFTRTLIVTDNMLTKLGMAGDVQKALEERNIFSVIYDGTQPNPTTENVAAGLKLLKENNCDSVISLGGGSPHDCAKGIALVAANGGDIRDYEGVDRSAKPQLPMIAINTTAGTASEMTRFCIITDEARHIKMAIVDKHVTPLLSVNDSSLMIGMPKSLTAATGMDALTHAIEAYVSIAATPITDACALKAVTMIAENLPLAVEDGSNAKAREAMAYAQFLAGMAFNNASLGYVHAMAHQLGGFYNLPHGVCNAVLLPHVQVFNSKVAAARLRDCAAAMGVNVTGKNDAEGAEACINAIRELAKKVDIPAGLRDLNVKEEDFAVLATNALKDACGFTNPIQATHEEIVAIYRAAM
B3 was tested. Which Km [1, 7] did it give?
Its Km is 2840 µM.

And the kcat/Km [1, 7]?
The kcat/Km was 340 M⁻¹ s⁻¹.

B4: Klebsiella pneumoniae BudC (Diacetyl reductase [(S)-acetoin forming], Uniprot Q48436), SEQ ID NO: 113 (Klebsiella pneumoniae) (protein)
chain: MKKVALVTGAGQGIGKAIALRLVKDGFAVAIADYNDATAKAVASEINQAGGRAMAVKVDVSDRDQVFAAVEQARKTLGGFDVIVNNAGVAPSTPIESITPEIVDKVYNINVKGVIWGIQAAVEAFKKEGHGGKIINACSQAGHVGNPELAVYSSSKFAVRGLTQTAARDLAPLGITVNGYCPGIVKTPMWAEIDRQVSEAAGKPLGYGTAEFAKRITLGRLSEPEDVAACVSYLASPDSDYMTGQSLLIDGGMVFN
What does the source list for B4?
Km [3]: 74800 µM; kcat/Km [3]: 4200 M⁻¹ s⁻¹

B5: Escherichia coli YafB (2,5-diketo-D-gluconic acid reductase B, Uniprot P30863), SEQ ID NO: 99 (Escherichia coli K-12) (protein)
chain: MAIPAFGLGTFRLKDDVVISSVITALELGYRAIDTAQIYDNEAAVGQAIAESGVPRHELYITTKIWIENLSKDKLIPSLKESLQKLRTDYVDLTLIHWPSPNDEVSVEEFMQALLEAKKQGLTREIGISNFTIPLMEKAIAAVGAENIATNQIELSPYLQNRKVVAWAKQHGIHITSYMTLAYGKALKDEVIARIAAKHNATPAQVILAWAMGEGYSVIPSSTKRKNLESNLKAQNLQLDAEDKKAIAALDCNDRLVSPEGLAPEWD
Which Km [1, 8] does the source give for B5 here?
Its Km is 8200 µM.

And the kcat/Km [1, 8]?
The kcat/Km was 2060 M⁻¹ s⁻¹.

B6: Escherichia coli YeaE (Uncharacterized protein YeaE, Uniprot P76234), SEQ ID NO: 107 (Escherichia coli K-12) (protein)
chain: MQQKMIQFSGDVSLPAVGQGTWYMGEDASQRKTEVAALRAGIELGLTLIDTAEMYADGGAEKVVGEALTGLREKVFLVSKVYPWNAGGQKAINACEASLRRLNTDYLDLYLLHWSGSFAFEETVAAMEKLIAQGKIRRWGVSNLDYADMQELWQLPGGNQCATNQVLYHLGSRGIEYDLLPWCQQQQMPVMAYSPLAQAGRLRNGLLKNAVVNEIAHAHNISAAQVLLAWVISHQGVMAIPKAATIAHVQQNAAVLEVELSSAELAMLDKAYPAPKGKTALDMV
For B6, which Km [1, 8] is on record?
Its Km is 1590 µM.

And the kcat/Km [1, 8]?
Its kcat/Km is 910 M⁻¹ s⁻¹.

B7: Escherichia coli YdhF (Oxidoreductase YdhF, Uniprot P76187), SEQ ID NO: 105 (Escherichia coli K-12) (protein)
chain: MVQRITIAPQGPEFSRFVMGYWRLMDWNMSARQLVSFIEEHLDLGVTTVDHADIYGGYQCEAAFGEALKLAPHLRERMEIVSKCGIATTAREENVIGHYITDRDHIIKSAEQSLINLATDHLDLLLIHRPDPLMDADEVADAFKHLHQSGKVRHFGVSNFTPAQFALLQSRLPFTLATNQVEISPVHQPLLLDGTLDQLQQLRVRPMAWSCLGGGRLFNDDYFQPLRDELAVVAEELNAGSIEQVVYAWVLRLPSQPLPIIGSGKIERVRAAVEAETLKMTRQQWFRIRKAALGYDVP
What does the source list for B7?
Km [1, 8]: 21800 µM; kcat/Km [1, 8]: 350 M⁻¹ s⁻¹

B8: Bacillus subtilis YhdN (general stress protein 69, Uniprot P80874), SEQ ID NO: 3 (Bacillus subtilis subsp. subtilis str. 168) (protein)
chain: MEYTSIADTGIEASRIGLGTWAIGGTMWGGTDEKTSIETIRAALDQGITLIDTAPAYGFGQSEEIVGKAIKEYGKRDQVILATKTALDWKNNQLFRHANRARIVEEVENSLKRLQTDYIDLYQVHWPDPLVPIEETAEVMKELYDAGKIRAIGVSNFSIEQMDTFRAVAPLHTIQPPYNLFEREMEESVLPYAKDNKITTLLYGSLCRGLLTGKMTEEYTFEGDDLRNHDPKFQKPRFKEYLSAVNQLDKLAKTRYGKSVIHLAVRWILDQPGADIALWGARKPGQLEALSEITGWTLNSEDQKDINTILENTISDPVGPEFMAPPTREEI
For B8, which Km [4] is on record?
Its Km is 640 µM.

And the kcat/Km [4]?
Its kcat/Km is 5920 M⁻¹ s⁻¹.

B9: Hypocrea jecorina Gld2 (Glycerol 2-dehydrogenase (NADP(+)), Uniprot Q0GYU4), SEQ ID NO: 109 (Trichoderma reesei) (protein)
chain: MASKTYTLNTGAKIPAVGFGTFANEGAKGETYAAVTKALDVGYRHLDCAWFYHNEDEVGDAVRDFLARRPDVKREDLFICTKVWNHLHEPEDVKWSAKNSCENLKVDYIDLFLVHWPIAAEKNSDRSVKLGPDGKYVINQALTENPEPTWRAMEELVESGLVKAIGVSNWTIPGLKKLLQIAKIKPAVNQIEIHPFLPNEELVAFCFENGILPEAYSPLGSQNQVPSTGERVRDNPTLKAVAERSGYSLAQILLAWGLKRGYVVLPKSSTPSRIESNFNIPELSDEDFEAIQQVAKGRHTRFVNMKDTFGYNVWPEEE
How did the Km [5] turn out when B9 was run?
The Km was 7700 µM.

And the kcat/Km [5]?
The kcat/Km was 11100 M⁻¹ s⁻¹.

B10: Escherichia coli YahK (aldehyde reductase, Uniprot P75691), SEQ ID NO: 1 (Escherichia coli K-12) (protein)
chain: MKIKAVGAYSAKQPLEPMDITRREPGPNDVKIEIAYCGVCHSDLHQVRSEWAGTVYPCVPGHEIVGRVVAVGDQVEKYAPGDLVGVGCIVDSCKHCEECEDGLENYCDHMTGTYNSPTPDEPGHTLGGYSQQIVVHERYVLRIRHPQEQLAAVAPLLCAGITTYSPLRHWQAGPGKKVGVVGIGGLGHMGIKLAHAMGAHVVAFTTSEAKREAAKALGADEVVNSRNADEMAAHLKSFDFILNTVAAPHNLDDFTTLLKRDGTMTLVGAPATPHKSPEVFNLIMKRRAIAGSMIGGIPETQEMLDFCAEHGIVADIEMIRADQINEAYERMLRGDVKYRFVIDNRTLTD
With B10 as the protein, how does the Km [1, 8] read?
The Km was 1410 µM.

And the kcat/Km [1, 8]?
The kcat/Km was 8300 M⁻¹ s⁻¹.

B11: Gluconobacter oxydans Gld (putative oxidoreductase, Uniprot Q5FQJ0), SEQ ID NO: 5 (Gluconobacter oxydans 621H) (protein)
chain: MASDTIRIPGIDTPLSRVALGTWAIGGWMWGGPDDDNGVRTIHAALDEGINLIDTAPVYGFGHSEEIVGRALAEKPNKAHVATKLGLHWVGEDEKNMKVFRDSRPARIRKEVEDSLRRLRVETIDLEQIHWPDDKTPIDESARELQKLHQDGKIRALGVSNFSPEQMDIFREVAPLATIQPPLNLFERTIEKDILPYAEKHNAVVLAYGALCRGLLTGKMNRDTTFPKDDLRSNDPKFQKPNFEKYLAAMDEFEKLAEKRGKSVMAFAVRWVLDQGPVIALWGARKPGQVSGVKDVFGWSLTDEEKKAVDDILARHVPNPIDPTFMAPPARD
Which Km [6] does the source give for B11 here?
The Km was 1100 µM.

What about the kcat/Km [6] of the same protein?
The kcat/Km was 8740 M⁻¹ s⁻¹.
